B1: Pistol ribozyme (parent)
chain: GGGUCGUUGUUCCAUAAUCGCGUGGAUAUGGCACGCAAGUUUCUACCGGGCACCGUAAAUGUCCGACUGGAGCCGUUCGGGCGGCUAUAAACAGACCUCAGGCCCGAAGCGUGGCGGCACCUGCCGCCGGUGGUAAAAAAGAUCGGAAGAGCACACGUCU

Variants of: B1
Assay: aptazyme ON/OFF ratio, guanine; higher = stronger switching; co-transcriptional cleavage with and without guanine

Aptazyme ON/OFF ratio, 1.49:
U7A U8C C12U

Aptazyme ON/OFF ratio, 1.17:
U7A U8C G9U U10C U11G C12G C13A
U8A G9C U11A C12G C13G
U7G U8C G9C U11G C13G
U8A G9C U11G C13U

Aptazyme ON/OFF ratio, 1.34:
U7G U10G C12A C13U

Aptazyme ON/OFF ratio, 2.28:
U7C U8C G9A U10C C12U

Aptazyme ON/OFF ratio, 1.23:
U7G G9U U10C U11C C12G
U7G U8C G9C U10A U11A C13U
U8A G9U C12G C13G
U7G G9U U10C U11G C12U C13G

Aptazyme ON/OFF ratio, 1.33:
U7G U8G G9A U11C C12G

Aptazyme ON/OFF ratio, 1.4:
U7G G9C U10A U11G C13U

Aptazyme ON/OFF ratio, 1.11:
G9C U10G U11A C12G C13A
U7C G9C U10G U11A C13U
U7A U8A G9A U10C C12G C13A
U7C U8C G9C U10G U11G C12G C13A
U8A G9U U10C U11G C12G C13U
U7C G9A U10A U11G C12G C13U
U7G G9C U10A U11A C13G
U7C U8G G9A U10G U11G C12A C13A
U8C G9U U10G C12U C13G
U7G U8C G9U U10A U11G C12U C13G
U7C G9A C12A C13G
U7G U8C G9C U10C U11A C13G
U7G U8A G9U U10G U11G
U7G U8G G9U U10A U11A C12G C13G

Aptazyme ON/OFF ratio, 1.31:
U8G G9C U10G U11G C12G
G9C U10A U11A C12G C13A

Aptazyme ON/OFF ratio, 1.09:
U7A U8A G9A U10C U11A C13G
U7C G9U U10C C12A C13U
U7A U8A G9U U10G U11G

Aptazyme ON/OFF ratio, 1.62:
U7G G9U U10G U11C C12A

Aptazyme ON/OFF ratio, 2.1:
U7G U8C G9U U10C U11A C12A C13U

Aptazyme ON/OFF ratio, 1.38:
U7A U8G G9C U10C C12U C13U

Aptazyme ON/OFF ratio, 1.63:
G9U U10C U11C

Aptazyme ON/OFF ratio, 1.04:
U7C U8A G9C U10C U11C C12G C13U
U7A G9U U10C U11C C12G C13G
U7G U8C U10A U11C
U7G U8A G9C U11A C12G
U7C U8A G9C U11C C13G

Aptazyme ON/OFF ratio, 1.26:
U7A U8G G9U C12U C13U

Aptazyme ON/OFF ratio, 2.77:
U7G G9C U10C

Aptazyme ON/OFF ratio, 1.16:
U7A U8G G9C U10G U11A C12A C13A
U7C G9A U10A C12U C13A
U7G U8A U10G U11A C12A
U7G U8G U10C U11G C12A C13G
G9C U10A C12A C13G
U8G G9A U10G C12U C13G
U7C U8C G9A U10G C12G C13G
U7A G9U C12U C13G
U7C U8C G9U U10A U11C
U8C G9U U11A C12A C13G
U7A U8A G9C U10A C12A C13G
U7A G9U U10A U11G C12U C13A
U7G U8G G9C C13G

Aptazyme ON/OFF ratio, 1.02:
U7C G9C U10C U11C C13A
U7C U8G G9A U10C U11C C13U

Aptazyme ON/OFF ratio, 1.44:
U7G G9A U10C C13U

Aptazyme ON/OFF ratio, 1.18:
U7A U8G G9C U10A U11G C12A C13G
U7G U8G G9A U10C U11A C12G C13G
G9A U10C U11G C12G
U7G U8A G9A U10G U11A C12U C13A
U7C U8G U10A U11A C12A C13U
U7G U8G G9U U10G U11G C12U C13U
U7G G9C U10G U11A C13A

Aptazyme ON/OFF ratio, 1.19:
U7C U8G G9U U10C U11C C12A C13G
U7A U8G G9C U10A C13A
U7A U8C G9A U10G U11A C12U C13A
U7G U8C U10C C12A C13A
U8C G9A C12U C13G

Aptazyme ON/OFF ratio, 1.06:
U8A G9C U11G C12A
U7G U8A G9U U10A U11C C12G C13A
U8A G9C U10A U11G C12A

Aptazyme ON/OFF ratio, 1.29:
U7A U8C G9U U11G

Aptazyme ON/OFF ratio, 1.47:
U10A U11A C12A C13U

Aptazyme ON/OFF ratio, 1.59:
U8G G9A U10G U11G

Aptazyme ON/OFF ratio, 1.28:
U7C U8G G9C U10A
U7C U8C U10A U11A C12U C13G
U7G U11A C12U C13U

Aptazyme ON/OFF ratio, 1.46:
U7C U8G G9A U10A C12G C13G
U7G U8C G9C U11C C13A

Aptazyme ON/OFF ratio, 1.48:
U7G U8C G9U U10A U11C C12U C13A

Aptazyme ON/OFF ratio, 1.12:
U7C U8A G9U U11C C12G C13G
U8A U10G U11A C13G
U8G G9U U10C U11G C12A C13U
U7C U8A G9U U10C U11A C12G
U7A U8G G9U U10A U11G C12A C13G
U7G U10C U11A C12U C13A
U7C U10A U11C C12A C13G
U7A G9C U10C U11A C13G
U7A U8C U10C U11C C12G C13A
U7G U8C U10G C12A C13A

Aptazyme ON/OFF ratio, 1.37:
U7C U8A U10G U11C C12A C13A
U8A U10G C12G C13A
U7G U8G U11G C12U C13U
U7G U8C G9U U11C C12G
U7A U8G G9U U10A U11G C13U

Aptazyme ON/OFF ratio, 1.41:
U7C U8G G9U U10C U11G C12U C13U

Aptazyme ON/OFF ratio, 1.22:
U7C U10G U11G C12G
U7G U8G C12A C13G

Aptazyme ON/OFF ratio, 1.25:
U8A G9U U10A U11C C12A C13U

Aptazyme ON/OFF ratio, 1.01:
U8A G9C U11C C12U C13U

Aptazyme ON/OFF ratio, 1.08:
U8C U11G C12U C13A
U7A U8C G9U U10A U11A C13G
U7C U8C U10G U11A C12G C13A
U8G G9A U10A U11C C13A
U7G U8C G9C U10A U11G C12A
U7A U8A G9A U10C U11G C13A
U8G G9U U10C U11A C12A C13G
U7C U8C G9C U10G U11G C12U C13A

Aptazyme ON/OFF ratio, 1.1:
U7C G9U U10C C12A
U7A U8G G9A U10A U11G C12A C13A
U7A G9C C12U
U7G U8C U10G U11A C12A C13G
U7A U8C G9C U10G U11C C13U

Aptazyme ON/OFF ratio, 1.15:
U7A U11G C12U C13A
U7A U8A G9U U10A U11A C12G C13A
U7G U8A G9U U10G U11G C12G C13A
U7A U8C G9U U10C U11A C12U C13U

Aptazyme ON/OFF ratio, 1.05:
U7A G9C C12G C13A
U8G G9U U10G U11G C12A C13U
U7A G9C U10G U11C C12U C13A
U7C U8A G9U U10C C13A
U7C U8A U10C U11C C12U C13G
U7A G9C C12G C13G
U10G U11C C13A
U7G U8G G9A U10A U11C C13U

Aptazyme ON/OFF ratio, 1.24:
U7A U8G U11A C12G C13U
U8G U10C U11A C12A C13U
U7C U8C U10C C12G C13A

Aptazyme ON/OFF ratio, 1.21:
U7C U10A U11A C12A C13U
U7A U10A U11A
U7A U8G G9U U10C U11G C12U
U7G G9A U10A U11C C12A C13U
U7C G9A U10G U11G C12U C13U

Aptazyme ON/OFF ratio, 1.14:
U7C U8G G9A U11C C12A C13U
U7G U8G U10C U11A C12A C13U
U7A G9A U10C U11G C12G C13U
U7C U8A G9A U10C U11G C12A C13U
U8A G9C U10G U11G C12A C13G
U7C U8G G9A C13A

Aptazyme ON/OFF ratio, 1.2:
U7G U8C G9A U10G U11C C12G
G9A U10A U11A C12G C13G
U7G U8A U10C U11C C12A C13A
U7A U8A C12G C13A
U8G C13G
U7A U8A G9C U10A C12A
U7G U8G G9A U10A C12A C13A

Aptazyme ON/OFF ratio, 1.07:
G9C C13U
U7A G9C U10C C12A C13A
U7C U8A G9C U10C C12G C13G

Aptazyme ON/OFF ratio, 1.27:
U7C U8G G9A U10A C12U C13U
U8A U10C U11C C12G

Aptazyme ON/OFF ratio, 1.13:
U7G U10A U11G C12A
U7C G9A U10G U11G C12A C13U
U8C G9U U11A C12G C13A
U7G G9U U10C U11A C12G C13A
U7C G9C U10G C12G

Aptazyme ON/OFF ratio, 4.98:
U7G U8C G9U

Aptazyme ON/OFF ratio, 1.03:
U8A G9A U10C U11C C12G C13A
U7C G9A C13G
U7A G9C U10C U11C C12A C13G
U7C U8A G9A U10C C13A
U7A U10C U11C C12U C13A
U8G U11G C13U

Aptazyme ON/OFF ratio, 1.36:
U8G G9A U10G U11G C12U C13A
